The target of this assay is T1, IRAK-4 (UniProt Q9NWZ3 1-460).
T1 construct: also called Gal4AD-IRAK4 (in yeast); not shown: N-terminal Flag or VSV tag (pCRIII) in HEK293T co-immunoprecipitation
T1 sequence (looked up): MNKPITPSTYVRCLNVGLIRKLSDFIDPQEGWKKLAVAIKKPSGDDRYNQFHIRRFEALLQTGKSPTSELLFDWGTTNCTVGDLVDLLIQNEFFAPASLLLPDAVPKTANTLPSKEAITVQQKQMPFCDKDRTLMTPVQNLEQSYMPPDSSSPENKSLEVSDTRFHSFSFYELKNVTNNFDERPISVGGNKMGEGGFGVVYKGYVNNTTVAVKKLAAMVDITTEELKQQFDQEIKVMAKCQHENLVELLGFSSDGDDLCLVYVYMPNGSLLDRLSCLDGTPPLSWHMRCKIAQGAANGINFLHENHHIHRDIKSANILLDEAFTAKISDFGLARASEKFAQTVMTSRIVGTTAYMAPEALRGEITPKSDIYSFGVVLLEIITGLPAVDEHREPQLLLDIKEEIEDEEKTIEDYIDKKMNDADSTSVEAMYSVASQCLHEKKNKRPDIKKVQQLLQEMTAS
Briefly: co-immunoprecipitation from transfected HEK293T cells. Here is the method:
To test this, IRAK-1KD and IRAK-4 interactions were analyzed in the presence or absence of MyD88 and/or MyD88S. […] However, addition of MyD88 but not MyD88S permitted assembly of a complex containing both IRAKs. MyD88 thereby appears to act like a hinge inducing the proximity of IRAK-1 and IRAK-4.
2×10⁶ HEK293T cells were plated on 10-cm petri dishes and transiently transfected with 1 μg of the indicated expression plasmids. The total amount of DNA was kept at 5 μg per petri dish by adding empty vector. Twenty-four hours post-transfection, cells were washed with PBS, and lysed in 500 μl lysis buffer (50 mM HEPES pH7.6, 250 mM NaCl, 0.1% NP-40, 5 mM EDTA, supplemented with protease and phosphatase inhibitors). Lysates were incubated for 16 hours with 5 μg anti-Flag (Sigma). Immunocomplexes were immobilized on protein A-Trisacryl beads (Pierce Chemical Co., Rockford, USA). The beads were washed twice with lysis buffer and twice with lysis buffer containing 1 M NaCl. Bound proteins were eluted by boiling in Laemli buffer and analyzed by 10% SDS-PAGE and Western blotting. Western blots were blocked with 5% milk and incubated overnight with primary antibodies. Antibodies raised against the C-terminal part of MyD88 were purchased from Immucor (Roedermark, Germany). […]

B1: E-MyD88S (other)
chain: MSAGDPRVGSGSLDSFMFSIPLVALNVGVRRRLSLFLNPRTPVAADWTLLPEEMGFEYLEIRELETRPDPTRSLLDAWQGRSGASVGRLLELLALLDREDILKELKSRIGQTPELFDAFICYCPNDIEFVQEMIRQLEQTDYRLKLCVSDRDVLPGTCVWSIASELIEKRCRRMVVVVSDDYLQSKECDFQTKFALSLSPGVQQKRLIPIKYKAMKKDFPSILRFITICDYTNPCTKSWFWTRLAKALSLP
notes: Expressed in HEK293T cells; also called pCAGGS-E-MyD88S; splice variant of MyD88 lacking the intermediate domain (ID); not shown: N-terminal E-tag
As to B1, the binding result is “no binding”.

The record behind these values is patent US20050181476A1 (VLAAMS INTERUNIVERSITAIR INSTITUUT VOOR BIOTECHNOLOGIE VZW, published 2005).
